Measured values as given in patent US20160362487A1 (Regeneron, published 2016).
Positions count from the first letter of the chain named. Names and notes keep the numbering of the source. Blank lines part the entries; values can stand above or below the binder they belong to.

Assays:
[1] = target: T1, cynomolgus monkey IL-33 expressed with a C-terminal hexahistidine tag (cynomolgus monkey); assay: competition ELISA, 150 pM MfIL-33-6His on coated hST2-hFc
T1 construct: also called MfIL-33-6His; Mf-IL-33-6His
T1 chain: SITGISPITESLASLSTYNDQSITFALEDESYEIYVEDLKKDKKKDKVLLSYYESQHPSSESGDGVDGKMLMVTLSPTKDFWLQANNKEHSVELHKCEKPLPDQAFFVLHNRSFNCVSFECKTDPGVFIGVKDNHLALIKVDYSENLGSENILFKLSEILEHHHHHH
Method: The ability of anti-IL-33 antibodies to block either human IL-33 (hIL-33) or cynomologus monkey IL-33 binding to the human ST2 receptor was measured using a competition sandwich ELISA. […] The antibody/IL-33 mixtures were incubated for 1 hour at room temperature before they were transferred to the hST2-hFc-coated microtiter plates. After incubating for 1 hour at room temperature, the wells were then washed, and plate-bound biotin-hIL-33 was detected with streptavidin conjugated with horse-radish peroxidase (HRP) (Thermo Scientific, Cat # N200), and plate-bound MfIL-33-6His was detected with a HRP conjugated anti-His monoclonal antibody (Qiagen, #34460). All samples were developed with a TMB solution (BD biosciences, #51-2607KC) to produce a colorimetric reaction and then quenched by acidification with 1M sulfuric acid before measuring absorbance at 450 nm on a Victor X5 plate reader. Data analysis was performed using a sigmoidal dose-response model within Prism™ software. […] Percent blockade was calculated as the ratio of the reduction in signal observed in the presence of antibody relative to the difference between the signal with IL-33 alone and background (signal from HRP-conjugated secondary antibody or streptavidin alone). The absorbance measured for the constant concentration of biotin-hIL-33 or MfIL-33-6His alone is defined as 0% blocking and the absorbance measured for no added IL-33 is defined as 100% blocking.

[2] = target: T1, cynomolgus monkey IL-33 expressed with …; assay: BLI; captured MfIL-33-6His, mAb-1 step with Isotype control
Method: Binding competition between a panel of different anti-IL-33 monoclonal antibodies was determined using a real time, label-free bio-layer interferometry assay on an Octet® HTX biosensor (ForteBio, A Division of Pall Life Sciences). The experiment was performed at 25° C. using a buffer of 0.01M HEPES pH7.4, 0.15M NaCl, 3 mM EDTA, 0.05% v/v Surfactant Tween-20, and 0.1 mg/ml BSA (HBS-ET kinetics buffer) with the plate shaking at a speed of 1000 rpm. […] The antigen-captured biosensors were then saturated with a first anti-IL-33 monoclonal antibody (subsequently referred to as mAb-1) by immersion into wells containing 50 μg/mL solution of mAb-1 for 5 minutes. The biosensors were then dipped into wells containing a 50 μg/mL solution of a second anti-IL-33 monoclonal antibody (subsequently referred to as mAb-2) for 4 minutes. The biosensors were washed in HBS-ET kinetics buffer in between every step of the experiment. The real-time binding response was monitored during the experiment, and the maximum binding response for each binding step was recorded. The response of mAb-2 binding to MfIL-33-6His pre-complexed with mAb-1 was measured, and competitive/non-competitive behavior of different anti-IL-33 monoclonal antibodies with respect to each other was determined.

[3] = target: T2, human IL-33 (R&D Systems, #3625-IL-010/CF) (human, UniProt O95760 112-270); assay: SPR 37C, pH6.0 chase, mAb captured
T2 construct: Commercial recombinant protein; also called hIL-33; interleukin-33
T2 sequence (looked up): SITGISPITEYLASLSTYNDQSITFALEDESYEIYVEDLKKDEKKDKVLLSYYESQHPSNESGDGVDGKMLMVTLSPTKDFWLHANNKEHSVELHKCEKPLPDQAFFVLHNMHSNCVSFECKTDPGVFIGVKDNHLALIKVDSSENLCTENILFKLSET
Method: (§1) Equilibrium dissociation constants (KD values) for IL-33 binding to purified anti-IL-33 monoclonal antibodies were determined using a real-time surface plasmon resonance biosensor using a Biacore 4000 instrument. The Biacore sensor surface was first derivatized by amine coupling with either a polyclonal rabbit anti-mouse antibody (GE, # BR-1008-38) or with a monoclonal mouse anti-human Fc antibody (GE, # BR-1008-39) to capture anti-IL-33 monoclonal antibodies expressed with mouse or with human IgG4 constant regions, respectively. All Biacore binding studies were performed in 0.01M ADA pH 7.4, 0.15M NaCl, 3 mM EDTA, and 0.05% v/v Surfactant Tween-20 (ABS-ET running buffer). […] Association of either hIL-33 or MfIL-33-6His to the captured monoclonal antibody was monitored for 4 minutes and their dissociation in ABS-ET running buffer was monitored for 10 minutes. The effect of reduced pH on the binding of each anti-IL-33 antibody to either hIL-33 or MfIL-33-6His was studied using an in-line pH chase assay format in 0.01M ADA pH 6.0, 0.15M NaCl, 3 mM EDTA, and 0.05% v/v Surfactant Tween-20 (ABS-ET pH6 buffer). To achieve this, association of either hIL-33 or MfIL-33-6His to the captured monoclonal antibody was monitored for 4 minutes in ABS-ET running buffer. Following a 30 second dissociation of either hIL-33 or MfIL-33-6His in ABS-ET running buffer, ABS-ET pH6 buffer was injected for 3 minutes, and the analyte dissociation under the low-pH conditions was measured. All the binding kinetic experiments were performed at both 25° C. and 37° C. Kinetic association (kₐ) and dissociation (kd) constants were determined by fitting the real-time sensorgrams to a 1:1 binding model using Scrubber 2.0c curve fitting software. Binding dissociation equilibrium constants (KD) and dissociative half-lives (t½) were calculated from the kinetic rate constants as: […]

[4] = target: T1, cynomolgus monkey IL-33 expressed with …; assay: SPR 37C, pH6.0 chase, mAb captured
Method: as §1

[5] = target: T2, human IL-33 (R&D Systems, …); assay: cell-based or functional assay
[6] = target: T2, human IL-33 (R&D Systems, …); assay: cell-based or functional assay; remark: listed apart in the source

% Maximum blocking [1]: 92%
IC50 [1]: 0.6 nM
mAb-2 Binding to the Pre-complex of mAb-1 & MfIL-33-6xHis [2]: 0.25 nm
koff [3]: 0.00299 s⁻¹
t½ [3]: 4 min
t½ Ratio (pH 7.4/pH 6.0) [3]: 7.4
koff [4]: 0.00102 s⁻¹
t½ [4]: 11 min
t½ Ratio (pH 7.4/pH 6.0) [4]: 0.5
IC50, blocking of human basophil degranulation induced by 100 pM human IL-33, donor 655687 [5]: 5.79e-10 M
IC50, blocking of human basophil degranulation induced by 100 pM human IL-33, donor 655688 [5]: 4.47e-10 M
IC50, blocking of IFN-γ release from human PBMC induced by 260 pM hIL-33, donor #603486 [6]: 1.25e-09 M
IC50, blocking of IFN-γ release from human PBMC induced by 260 pM hIL-33, donor #603487 [6]: 2.71e-09 M
B1: H4H9659P (antibody, human IgG4, V domains shown)
VH: QVQLVQSGAEVKKPGASVKVSCKASGYTFNSYGISWVRQAPGQGLEWMGWISSHNGNSHYVQKFQGRVSMTTDTSTSTAYMELRSLRSDDTAVYYCARHSYTTSWYGGFDYWGQGTLVTVSS
VL: DIQMTQSPSSVSASVGDRVTITCRASQGFSSWLAWYQQKPGKAPQLLIYAASSLQSGVPSRFSGSGSGSDFTLTISSLQPEDFATYYCQQANSFPLTFGGGTKVEIK
notes: Human IgG4 Fc (H4H)

% Maximum blocking [1]: 62%
IC50 [1]: 0.58 nM
mAb-2 Binding to the Pre-complex of mAb-1 & MfIL-33-6xHis [2]: 0.26 nm
koff [3]: 0.00585 s⁻¹
t½ [3]: 2 min
t½ Ratio (pH 7.4/pH 6.0) [3]: 5.1
koff [4]: 0.00819 s⁻¹
t½ [4]: 1.4 min
t½ Ratio (pH 7.4/pH 6.0) [4]: 1.3
IC50, blocking of IFN-γ release from human PBMC induced by 260 pM hIL-33, donor #603486 [6]: 2.97e-09 M
IC50, blocking of IFN-γ release from human PBMC induced by 260 pM hIL-33, donor #603487 [6]: 8.62e-09 M
B2: H4H9671P (antibody, human IgG4, V domains shown)
VH: EVQLVESGGGLVQPGGSLRLSCAASGFTLRSYFMTWVRQVPGKGLEGVSAISGISGGTYYTDSVKGRFTISRDNSKNTLFLQMNSLRAEDTAVYFCARTVYSSSYYGGFQHWGQGTLVTVSS
VL: B1 VL with A13V, F29I, Q45K, A50V, S69T, A91T
notes: Human IgG4 Fc (H4H)

% Maximum blocking [1]: 72%
IC50 [1]: 1.5 nM
mAb-2 Binding to the Pre-complex of mAb-1 & MfIL-33-6xHis [2]: 0.26 nm
koff [3]: 0.00463 s⁻¹
t½ [3]: 2 min
t½ Ratio (pH 7.4/pH 6.0) [3]: 5.3
koff [4]: 0.00735 s⁻¹
t½ [4]: 1.6 min
t½ Ratio (pH 7.4/pH 6.0) [4]: 1.5
IC50, blocking of human basophil degranulation induced by 100 pM human IL-33, donor 655687 [5]: 1.33e-10 M
IC50, blocking of human basophil degranulation induced by 100 pM human IL-33, donor 655688 [5]: 9.71e-11 M
IC50, blocking of IFN-γ release from human PBMC induced by 260 pM hIL-33, donor #603486 [6]: 1.75e-10 M
IC50, blocking of IFN-γ release from human PBMC induced by 260 pM hIL-33, donor #603487 [6]: 4.71e-10 M
B3: H4H9675P (antibody, human IgG4, V domains shown)
VH: EVQLVESGGNLEQPGGSLRLSCTASGFTFSRSAMNWVRRAPGKGLEWVSGISGSGGRTYYADSVKGRFTISRDNSKNTLYLQMNSLSAEDTAAYYCAKDSYTTSWYGGMDVWGHGTTVTVSS
VL: B1 VL with F29I, S30F, Q45K, S69T, T85I, F94V, L96I, G100Q, K103R, V104L
notes: Human IgG4 Fc (H4H)
